Test results reported in the DeepSol protein solubility set.

Assay: soluble on expression in E. coli; label from the status in PepcDB or PDB records

Row | Sequence | soluble on expression in E. coli
1 | MGSDKIHHHHHHMEKLYEIYTGGAEDSFEVGKLLFEENSWQLYLTLDELGRDDSLLLIRKPAVTRLLDQSDYLAEIQRRRKMLTQKGLADPFKLEDKVTLIKSVGSFMDLLPGQVVYFGLEGEDYQQWGYIDEISAGQVNFAAYPSGKYRPFAGEVAVSQLRRLAAFSGEWLLDNPKLRDTEDTTVDGLREVHLKEDPASFAVGRLLCADDDFSLYLTVDEIGRDDSLLLVKKLAVDRVIDQSEYLQDTSRCRRQLKEKGLEDPFEVQGKAANIKQMQDFWRLAAGQVVSFVMKDEEEAEYGILKSKEGDALSFGQYPSGKYETFAGQISLVEVDRLEAFGGELTLENNNC | not soluble
2 | MGSDKIHHHHHHMDREIFVSYSVSANSIAGWVAYGGSESFHDMSRGILAARIGIPRLLRMFRKFCIKSSWYVPGIVMETFPDEVRAIYADGHELGTHGYLHEYAPSMSYDQEERVIAKTAELVKDITGHNPYGHLPSQWEESVNTMRILMNHGYKYARGLEDDDFHPFYASTGRSWPRVDYSKLPETWMKPMNLGEKIDFVEIPINWFLNDGTYFNFNKHVPGKRPMSLSEVLENWKAAFDYVYREYEYAIFPVNIHPDTSGNPEVQIFHEKFISYILEHNGASFVSDSFIAEDFRKRYPFPHEFREKVDL | not soluble
3 | MSLESKPVVFHDVPQDHWAFEAISDLGNAGIIAGYGHGIFGLGDDVTREQVAALIYRSMEGIEEKEEYENPYGDLDEHGSTLFLEEILALTEMGIFQGDEQGNFRPKDTLTRAEMAQVIATAFDLEVKAPHSFNDVPANSWAKDAISAVQSNQIAAGIGQGKFAPEMKVTREQYAQFLYNALTNEHAEEGHHHHHH | soluble
4 | MRYFPLFLDLTNKPVLVVGGGEVACRKIDALLRADAKVTVISPQVAPALQAWIEQGKCHWIQHFYSSHWLDKRYVQVWATTDNPELNHQVYKDAKEQGILVNVVDDQPYCDFITPSMIERGRIQLAISSGGASPVLIRNIRETLEAVLAQNLALLADFGASKRNSIKDFLPSVDLRRQFWERFFAHPEVKNAQDRESLERIYIHLLTQSTDKVSATTWIEFGADVELLSLKALRYMQQAELVLHTQDCPFVFVDLCRRDAQRQSFNSSVELSTLLLQAQQETQNVCVLIPSGSSEYALLQGKATVLKMAQQG | not soluble
5 | MGHHHHHHSHMEPEAFEICPYDPHHRIPLSRFQYHLASCRRKNPKKAKKMATCKYNACHVVPIKNLEEHEAVCVNRSAVEEEDTENPLKVSPPSSEQNDDTQQVSPCLPSPDIWNVDGANCQHVFVLKTFFPQKVVCENDTKESARETSPQKILRPGQ | not soluble
6 | MSLHWLFGDQLGPHFLTPGEEGPGPETPLLMIEARSVFRRRRFHRAKAHLVLSAMRHRAAEPGDRVTYVRADTYRQGLARTARGRPVGVHHPTSHAALRLVRALPQVTVGPARGFLVPMTGFAAWAEGHGGKRLRQEDFYRWVRRGHGLLMDGEQPAAGRWNLDHDNREPPPREAASLQVGRPYRPREDDIDEEVRHDLDRWERDGDVSFVGRDGPRLFEGHHHHHH | soluble
7 | MKIGVFDSGVGGLSVLKSLYEARLFDEIIYYGDTARVPYGVKDKDTIIKFCLEALDFFEQFQIDMLIIACNTASAYALDALRAKAHFPVYGVIDAGVEATIKALHDKNKEILVIATKATIKSEEYQKRLLSQGYTNINALATGLFVPMVEEGIFEGDFLQSAMEYYFKNITTPDALILACTHFPLLGRSLSKYFGDKTKLIHSGDAIVEFLKERENIDLKNHKAKLHFYASSDVESLKNTAKIWLNLLRK | not soluble
8 | MAHHHHHHMMSVANAAYLPLIGSCLTAGEQTALQCSLPLLSQRYRGTPMQLWGKVTGIKANYWVAQAFPNGEFAPAVSFYSIDGGSTWTMLSELTEEQAALCEALRGPYQGVPSYEYMMRQDLPAETDEAAVTMPTPDDILKKAEDDIAAARAASDANSDADESEGDDEEQDDEEEEDEEDAGAVLAPRKRMAKFRILSVTEAMRLAHFVQLHDADCRLTVRGMYVLQDGAAVGARNSTFGGQPLHNAKKPSCYVKMARAGTEERNRILYGLTYNPHTDYLMPITDDAPAGVWSVKYNATANVVSVRNLFYEGSLFWYRPGTLECGQVYCGPGERNFDLCFML | soluble
9 | MSISMDRWQGIQHVVVVGLGITGLSVVNYLRKYHPSVTVQVIDTREAPPGQEQLSSDVALHRSGWNLEWLLNADLVVTNPGIALATPEIQQVLAAGIPVVGDIELFAWHVDTPVIAITGSNGKSTVTDLSGVLANAAGVKAAVGGNIGVPALDLISPDVELYVLELSSFQLETTSSLKLKAAAFLNLSEDHMDRYQGMEDYRQAKLRIFDHAETAVVNADDTQTFPDHAAHLQVVTFGVEQAAQFSLAQHQGREYLFARDEAVMACAELSLVGRHNVANVLTVLALLDSAGVNFRLALDALKSYTGLTHRCQVVADNHGIKWVNDSKATNVASTLAALSGLKIEGQLYLLVGGVGKGADFTPLAPVLATLPVQLCCFGVDGHQFMPLHPSARFYDSMESIIRSIRPQLKSGDMVLLSPACASFDQFKNFMARGDIFAQLARQYA | not soluble
10 | MSLSHSAEDSRRRELGAFLRSRRERLTPSATGISTGLRRRTPGLRREEVAMIAGVGTTWYTWLEQGRDVRPSVEVLTALSGALRLDAAEKRHLFTLAGRQLPERRRIAAGKVEGPLLHMLQSLVLQPAYVVGPRWDVLAWNDAAVAIFGDYGQLEGDARNIIHGVFTDPHRRHLLADWEQVARATLAAFRAESARYVGDPDFERLIALMMRSSPEFREWWPQRDVVHRLSGMKHLRHPTAGAMVFEHMSLSIDDGSDMKLIVYTPLAEQNSIAKLQSLLDAILRKEDRLKGIITITTDPNSSSVDKLAAALEHHHHHH | soluble
11 | MAAPEAEVLSSAAVPDLEWYEKSEETHASQIELLETSSTQEPLNASEAFCPRDCMVPVVFPGPVSQEGCCQFTCELLKHIMYQRQQLPLPYEQLKHFYRKPSPQAEEMLKKKPRATTEVSSRKCQQALAELESVLSHLEDFFARTLVPRVLILLGGNALSPKEFYELDLSLLAPYSVDQSLSTAACLRRLFRAIFMADAFSELQAPPLMGTVVMAQGHRNCGEDWFRPKLNYRVPSRGHKLTVTLSCGRPSIRTTAWEDYIWFQAPVTFKGFRE | soluble
12 | MDKIIFQRVTDCEYPSLFSIYKKYLKPTIEEALGWDELYQQQRFNQSYQKEWFDWIMYNGERLGIICTKPDAIRSTIHIHLLIVFEKYQNKGVGTAVMKCYQKHYSDAVTKSCLSAFKVNKSVINFYLSLGYQIVREDEHFVEMERSLCFSGYMGES | not soluble
13 | MNAHDEVQRTLNPTCTGTSVIALQYKTGVVVLTDRVVSYGKMARYKNVSRQYKVNDNVLIAFGGDHADFHWLQNVIERQVLLWKRFDQDIGPKALHGYLTSLLYAKRCKMNPVWNTLVVAGVEEEEKNNKETSTPFIGVITQKGCAYQVKHIATGLGAFLLNQAVEDEWRKKGEDLSREEAEAVLRKSLELTLYHDCVADNEFEIGRVDATEGVVLGKEEKIIGDWSIAETNCQYE | not soluble
14 | MSEAESVVIKGGNKDKILPLEAEEKKPIKEEKNKAVILSNWIIKYAPIVYFHPDEKCFPITVEEFLECTDVMNEKNEKFCDGKEILSGSFKDALGNQKFYLKITDTSVREGNLNSAKCYVYVRKRNKGRYLDLQYFFFYGYNGPTINIHLNKNKKNYSTSNIGENYGNWEHVTVVIDSTDGSILGAIFDQHGKSCFYDIDQLEYEKGHIVVYSALSSHASYPSAGKSVTEYDSQELGVPPVSVGIVKFELHDATDKGRRWDTSLVCQLVSYNITGTEVEEPKWMAFNGRWGKPYDLTDKDISILYQISRLPAGGKVVDSLLWRFIPYSKKNINQANGIKSKDDFNIIILEHHHHHH | not soluble
15 | MRKLVVGSRRSKLALTQSQQFIDKLKAVEPNLEIEIKEIVTKGDRIVDKQLSKVGGKGLFVKEIQHELFEKNIDMAIHSLKDVPSVIPEGLTLGCIPDRELPFDAYISKTHTPLSQLPEGSIIGTSSLRRGAQILSKYPNLEIKWIRGNIDTRLEKLQTEDYDAIILAAAGLRRMGWSDDIVTSYLDRDTLLPAIGQGALGIECRSDDEELLTLLSKVHNDEVAKCVTAERTFLAEMDGSCQVPIAGYATISDQNEIEFTGLIMTPDGKERFEYTMNGTDPVELGKTVSNKLKEQGAYEIIKRLNEQH | not soluble
